Experimental data taken from PMC5396282, “Characterization of Carboxylic Acid Reductases as Enzymes in the Toolbox for Synthetic Chemistry” (Chemcatchem, 2017).

Key:
[1] = target: T1, mpCAR (Mycolicibacterium phlei, UniProt A0A5N5VEC4); experiment: NADPH oxidation at […] nm, product inhibition kinetics; type: biochemical; conditions: pH 7.5, 30 °C, 10 mM MgCl2
T1 construct: gene car; expressed in E. coli BL21(DE3) with B. subtilis Sfp (phosphopantetheinylated); around 130 kDa

[2] = system: O=C(O)/C=C/c1ccccc1; experiment: purified protein; type: biochemical, Nocardia iowensis; conditions: 1 mM ATP, […] NADPH, 10 mM MgCl2, 100 mM Tris-HCl pH 7.5, 30 °C
[3] = system: CCCCCCCCCCCC(=O)O; experiment: purified protein; type: biochemical, Nocardia iowensis; conditions: 1 mM ATP, […] NADPH, 10 mM MgCl2, 100 mM Tris-HCl pH 7.5, 30 °C
[4] = system: COc1ccc(C(=O)O)cc1; experiment: purified protein; conditions: 1 mM ATP, 0.25 mM NADPH, 10 mM MgCl2, 100 mM Tris-HCl pH 7.5, 30 °C
[5] = system: CCCCCCCC(=O)O; experiment: purified protein; type: biochemical, Tsukamurella paurometabola; conditions: 1 mM ATP, […] NADPH, 10 mM MgCl2, 100 mM Tris-HCl pH 7.5, 30 °C
[6] = system: CCCCCCCCCCCC(=O)O; experiment: purified protein; type: biochemical, Tsukamurella paurometabola; conditions: 1 mM ATP, […] NADPH, 10 mM MgCl2, 100 mM Tris-HCl pH 7.5, 30 °C
[7] = system: O=C(O)C#Cc1ccccc1; experiment: purified protein; type: biochemical, Tsukamurella paurometabola; conditions: 1 mM ATP, […] NADPH, 10 mM MgCl2, 100 mM Tris-HCl pH 7.5, 30 °C
[8] = system: CCCCCCCCCCCCCCCCCC(=O)O; experiment: purified protein; type: biochemical, Tsukamurella paurometabola; conditions: 1 mM ATP, […] NADPH, 10 mM MgCl2, 100 mM Tris-HCl pH 7.5, 30 °C
[9] = system: CCCCCCCCCCCC(=O)O; experiment: purified protein; conditions: 1 mM ATP, […] NADPH, 10 mM MgCl2, 100 mM Tris-HCl pH 7.5, 30 °C
[10] = system: CCCCCCCCCCCCCCCCCC(=O)O; experiment: purified protein; conditions: 1 mM ATP, […] NADPH, 10 mM MgCl2, 100 mM Tris-HCl pH 7.5, 30 °C
[11] = substrate: CCCCCCCCCCCC(=O)O; experiment: purified protein; type: biochemical, Mycolicibacterium smegmatis; conditions: 1 mM ATP, […] NADPH, 10 mM MgCl2, 100 mM Tris-HCl pH 7.5, 30 °C
[12] = substrate: O=C(O)/C=C/c1ccccc1; experiment: purified protein; conditions: 1 mM ATP, 0.25 mM NADPH, 10 mM MgCl2, 100 mM Tris-HCl pH 7.5, 30 °C
[13] = substrate: Cc1ccc(C(=O)O)cc1; experiment: purified protein; conditions: 1 mM ATP, 0.25 mM NADPH, 10 mM MgCl2, 100 mM Tris-HCl pH 7.5, 30 °C
[14] = substrate: CCCCCCCC(=O)O; experiment: purified protein; conditions: 1 mM ATP, 0.25 mM NADPH, 10 mM MgCl2, 100 mM Tris-HCl pH 7.5, 30 °C

With `O=P(O)(O)OP(=O)(O)O` [PPi] as the molecule, how does the Ki ([1]; mixed inhibition with ATP) read?
Its Ki is 220 ± 50 µM.

niCAR (Nocardia iowensis) was tested. Which Km [2] did it give?
The Km was 50 ± 20 µM.

What about the kcat [2] of the same molecule?
The kcat was 0.128 ± 0.0117 s⁻¹.

And the kcat/Km [2]?
Its kcat/Km is 2830 ± 1170 M⁻¹ s⁻¹.

What about the Km [3] of the same molecule?
Its Km is 20 ± 10 µM.

What about the kcat [3] of the same molecule?
Its kcat is 2.62 ± 0.15 s⁻¹.

And the kcat/Km [3]?
The kcat/Km was 117000 ± 33300 M⁻¹ s⁻¹.

And the Km [4]?
The Km was 250 ± 10 µM.

What about the kcat [4] of the same molecule?
The kcat was 0.817 s⁻¹.

What about the kcat/Km [4] of the same molecule?
The kcat/Km was 3330 M⁻¹ s⁻¹.

Which Ki ([1]; competitive with NADPH) does the source give for `NC(=O)c1ccc[n+]([C@@H]2O[C@H](COP(=O)(O)OP(=O)(O)OC[C@H]3O[C@@H](n4cnc5c(N)ncnc54)[C@H](OP(=O)(O)O)[C@@H]3O)[C@@H](O)[C@H]2O)c1` [NADP^+] here?
The Ki was 143 ± 8 µM.

With “tpCAR (Tsukamurella paurometabola DSM 20162)” as the molecule, how does the Km [5] read?
Its Km is 200 ± 10 µM.

What about the kcat [5] of the same molecule?
The kcat was 3.65 ± 0.05 s⁻¹.

And the kcat/Km [5]?
The kcat/Km was 19000 ± 833 M⁻¹ s⁻¹.

What about the Km [6] of the same molecule?
The Km was 40 ± 10 µM.

What about the kcat [6] of the same molecule?
Its kcat is 2.62 ± 0.0833 s⁻¹.

What about the kcat/Km [6] of the same molecule?
The kcat/Km was 60000 ± 6670 M⁻¹ s⁻¹.

And the Km [7]?
Its Km is 90 ± 20 µM.

And the kcat [7]?
Its kcat is 0.1 ± 0.0667 s⁻¹.

What about the kcat/Km [7] of the same molecule?
Its kcat/Km is 1170 ± 667 M⁻¹ s⁻¹.

And the Km [8]?
The Km was 120 ± 30 µM.

And the kcat [8]?
The kcat was 0.25 ± 0.0167 s⁻¹.

And the kcat/Km [8]?
The kcat/Km was 2000 ± 500 M⁻¹ s⁻¹.

Which Ki ([1]; competitive with ATP) does the source give for `Nc1ncnc2c1ncn2[C@@H]1O[C@H](COP(=O)(O)O)[C@@H](O)[C@H]1O` [AMP] here?
Its Ki is 8200 ± 900 µM.

With noCAR (Nocardia otitidiscaviarum) as the molecule, how does the Km [9] read?
The Km was 40 ± 10 µM.

And the kcat [9]?
The kcat was 1.65 ± 0.05 s⁻¹.

What about the kcat/Km [9] of the same molecule?
Its kcat/Km is 41700 ± 5000 M⁻¹ s⁻¹.

What about the Km [10] of the same molecule?
The Km was 20 ± 10 µM.

And the kcat [10]?
Its kcat is 0.183 ± 0.0167 s⁻¹.

And the kcat/Km [10]?
Its kcat/Km is 8330 ± 5000 M⁻¹ s⁻¹.

B1: msCAR (Mycolicibacterium smegmatis MC2 155) (protein)
chain: MTSDVHDATDGVTETALDDEQSTRRIAELYATDPEFAAAAPLPAVVDAAHKPGLRLAEILQTLFTGYGDRPALGYRARELATDEGGRTVTRLLPRFDTLTYAQVWSRVQAVAAALRHNFAQPIYPGDAVATIGFASPDYLTLDLVCAYLGLVSVPLQHNAPVSRLAPILAEVEPRILTVSAEYLDLAVESVRDVNSVSQLVVFDHHPEVDDHRDALARAREQLAGKGIAVTTLDAIADEGAGLPAEPIYTADHDQRLAMILYTSGSTGAPKGAMYTEAMVARLWTMSFITGDPTPVINVNFMPLNHLGGRIPISTAVQNGGTSYFVPESDMSTLFEDLALVRPTELGLVPRVADMLYQHHLATVDRLVTQGADELTAEKQAGAELREQVLGGRVITGFVSTAPLAAEMRAFLDITLGAHIVDGYGLTETGAVTRDGVIVRPPVIDYKLIDVPELGYFSTDKPYPRGELLVRSQTLTPGYYKRPEVTASVFDRDGYYHTGDVMAETAPDHLVYVDRRNNVLKLAQGEFVAVANLEAVFSGAALVRQIFVYGNSERSFLLAVVVPTPEALEQYDPAALKAALADSLQRTARDAELQSYEVPADFIVETEPFSAANGLLSGVGKLLRPNLKDRYGQRLEQMYADIAATQANQLRELRRAAATQPVIDTLTQAAATILGTGSEVASDAHFTDLGGDSLSALTLSNLLSDFFGFEVPVGTIVNPATNLAQLAQHIEAQRTAGDRRPSFTTVHGADATEIRASELTLDKFIDAETLRAAPGLPKVTTEPRTVLLSGANGWLGRFLTLQWLERLAPVGGTLITIVRGRDDAAARARLTQAYDTDPELSRRFAELADRHLRVVAGDIGDPNLGLTPEIWHRLAAEVDLVVHPAALVNHVLPYRQLFGPNVVGTAEVIKLALTERIKPVTYLSTVSVAMGIPDFEEDGDIRTVSPVRPLDGGYANGYGNSKWAGEVLLREAHDLCGLPVATFRSDMILAHPRYRGQVNVPDMFTRLLLSLLITGVAPRSFYIGDGERPRAHYPGLTVDFVAEAVTTLGAQQREGYVSYDVMNPHDDGISLDVFVDWLIRAGHPIDRVDDYDDWVRRFETALTALPEKRRAQTVLPLLHAFRAPQAPLRGAPEPTEVFHAAVRTAKVGPGDIPHLDEALIDKYIRDLREFGLI
notes: expressed in E. coli BL21(DE3) with B. subtilis Sfp (phosphopantetheinylated); one of three M. smegmatis paralogues, distinct from the CAR of Moura et al
With B1 as the molecule, how does the Km [11] read?
The Km was 50 ± 10 µM.

What about the kcat [11] of the same molecule?
Its kcat is 2.18 ± 0.0833 s⁻¹.

What about the kcat/Km [11] of the same molecule?
The kcat/Km was 45000 ± 6670 M⁻¹ s⁻¹.

And the Km [12]?
The Km was 75 ± 4 µM.

And the kcat [12]?
Its kcat is 1.97 s⁻¹.

What about the kcat/Km [12] of the same molecule?
Its kcat/Km is 26700 M⁻¹ s⁻¹.

And the Km [13]?
Its Km is 160 ± 20 µM.

What about the kcat [13] of the same molecule?
Its kcat is 2.57 s⁻¹.

And the kcat/Km [13]?
Its kcat/Km is 15000 M⁻¹ s⁻¹.

What about the Km [14] of the same molecule?
The Km was 100 ± 10 µM.

And the kcat [14]?
Its kcat is 4.93 s⁻¹.

And the kcat/Km [14]?
Its kcat/Km is 50000 M⁻¹ s⁻¹.
